# Laboratory results: US20220403048A1, “BINDING MOLECULES TO ARGINASE II [ARG2]” (Cancer Research Technology Limited, priority 2019, published 2022)
# T1: human ARG2 (Homo sapiens, UniProt P78540, E275H/R327K)
# T1 construct: His10 (after a GGG linker) (C); made in house; host or cells: E. coli BL21 (DE3)
# T1 sequence (P78540 23-354 E275H/R327K): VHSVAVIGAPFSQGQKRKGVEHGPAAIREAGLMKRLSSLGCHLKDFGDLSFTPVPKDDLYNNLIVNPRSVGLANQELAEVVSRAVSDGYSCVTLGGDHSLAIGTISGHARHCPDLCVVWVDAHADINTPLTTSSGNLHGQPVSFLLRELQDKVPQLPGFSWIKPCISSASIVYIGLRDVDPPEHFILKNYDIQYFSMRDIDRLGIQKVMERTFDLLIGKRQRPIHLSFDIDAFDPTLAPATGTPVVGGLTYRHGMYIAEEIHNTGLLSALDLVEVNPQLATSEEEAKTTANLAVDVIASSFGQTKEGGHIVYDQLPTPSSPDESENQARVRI
# T2: human ARG1 (Homo sapiens, UniProt P05089)
# T2 construct: Avi tag (N); His10 (after a GGG linker) (C); made in house; host or cells: E. coli BL21 (DE3)
# T2 sequence (P05089 with tags, fused parts or gaps): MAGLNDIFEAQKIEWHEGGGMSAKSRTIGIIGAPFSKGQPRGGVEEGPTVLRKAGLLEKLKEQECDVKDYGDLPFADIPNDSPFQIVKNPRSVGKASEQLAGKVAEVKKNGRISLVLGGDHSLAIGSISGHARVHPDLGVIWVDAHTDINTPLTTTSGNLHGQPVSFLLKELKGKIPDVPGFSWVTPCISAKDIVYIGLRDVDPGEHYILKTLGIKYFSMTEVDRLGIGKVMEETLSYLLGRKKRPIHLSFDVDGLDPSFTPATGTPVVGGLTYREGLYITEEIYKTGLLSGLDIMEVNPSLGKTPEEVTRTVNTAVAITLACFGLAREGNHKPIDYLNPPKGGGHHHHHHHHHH
# Columns and labels:
# human ARG2 = target: T1, human ARG2; test: Bio-Layer Interferometry (OctetRED) binding kinetics, human ARG2; settings: Fab as analyte; streptavidin capture; analyte 1.8 to 120 nM; affinity-matured antibodies
# Description: (§1) The OctetRED (Pall ForteBio) instrument was used to assess the kinetic parameters of the interactions between C0020187 and recombinantly produced human ARG2, cynomolgus ARG2 and human ARG1. The Octet biosensor uses an optical analytical technique that analyses the interference pattern of white light reflected from two surfaces: a layer of immobilised protein on the sensor tip, and an internal reference layer. Any changes in binding at the biosensor tip result in a shift in interference pattern, which can be measured in real time. Molecules associating with or dissociating from ligands at the biosensor tip shift the interference pattern and generate a response on the Octet system which is recorded by the acquisition software.
# (§2) Typically, a defined concentration of the analyte species is brought into contact with the coupled ligand and any binding is detected as an increased in signal (association phase). This is followed by a period of buffer rinse, during which dissociation of the analyte species from the surface immobilised ligand can be observed as a decrease in signal (dissociation phase). Repetition of this with a range of analyte concentrations provides data for the analysis of binding kinetics.
# (§3) An Octet Kinetics Buffer (PBS containing 0.01% BSA and 0.002% Tween20) is typically used as the diluent buffer for the analyte samples and as the flow buffer during the dissociation phase. The experimental data is recorded over time as shift in interference pattern (nm) over time, which is directly proportional to the optical thickness at the biosensor tip, which in turn is an approximate measure of the mass of analyte bound. The proprietary Octet Data Analysis software package can then be used to process data and fit binding models to the data sets. Returned association (ka, M^−1 s^−1) and dissociation (kd, s^−1) rate constants allow calculation of dissociation (KD, M) affinity constants.
# (§4) The affinity of binding between the Fab of C0020187 and human ARG2, cynomolgus ARG2 and human ARG1 was estimated using assays in which the biotinylated ARG antigen was captured on a streptavidin sensor tip. A fresh sensor tip was used for each measurement and no regeneration was used. A series of dilutions of the C0020187 Fab (3.25-240 nM) were individually placed in contact with the ligand surface for a sufficient amount of time to observe sensorgrams that could be fitted to an appropriate binding model with confidence (typically 5 minutes), followed by an appropriate length of dissociation time (typically 10 minutes). Blank reference (0 nM Fab) data were subtracted from each dataset to reduce the impact of any buffer artefacts or non-specific binding effects. An appropriate binding model was then fitted simultaneously to the data from each analyte titration using the Octet Evaluation software.
# (§5) Example results for C0020187 are shown in Table 9, showing the association rate constants (ka), dissociation rate constants (kd) and dissociation constants (KD). These parameters were derived from a 1:1 binding fit to the data.
# (§6) The affinities of the affinity-matured antibodies to human ARG2 were measured on the OctetRED system as described in section 1.15 using the streptavidin capture method. Typically, an analyte titration range of 1.8 to 120 nM was used.
# The affinities of the second-generation antibodies to human ARG2 were measured on the OctetRED system. A screening assay which stably captures His-tagged ARG2 as the ligand on an anti-His surface was utilised to screen the second-generation candidates as Fabs at an analyte range of 1.8 to 120 nM, with an association time of 5 minutes and a dissociation time of 10 minutes. Sensors were regenerated using 10 mM glycine pH 1.5 after each cycle. Based on this assay, six candidates with estimated affinities in the sub-nanomolar range were identified, and they were further profiled using an extended assay which is more suitable for antibodies of high affinities. […]
# human ARG1 = target: T2, human ARG1; test: Bio-Layer Interferometry (OctetRED) binding, human ARG1; settings: Fab analyte up to 120 nM, screening assay on anti-His surface
# Description: as §4
# (§7) The binding of affinity-matured antibodies to human ARG1 was also tested on the OctetRED system using a screening assay which stably captures […] as the ligand on an anti-His surface. The Fabs were typically tested in an analyte range of 1.8 to 120 nM, with an association time of 5 minutes and a dissociation time of 10 minutes. Sensors were regenerated using 10 mM glycine pH 1.5 after each cycle.
# as §7, with “Binding” for “The binding”, “the second-generation” for “affinity-matured”, “ARG” for “ARG1”, “were” for “were typically”, “as” for “in an”, “up” for “range of 1.8”
# cynomolgus ARG2 = test: Bio-Layer Interferometry (OctetRED) binding kinetics, cynomolgus ARG2; settings: Fab as analyte; cyno ARG2 ligand; affinity-matured antibodies
# Sequence of cynomolgus ARG2 (as listed by the source): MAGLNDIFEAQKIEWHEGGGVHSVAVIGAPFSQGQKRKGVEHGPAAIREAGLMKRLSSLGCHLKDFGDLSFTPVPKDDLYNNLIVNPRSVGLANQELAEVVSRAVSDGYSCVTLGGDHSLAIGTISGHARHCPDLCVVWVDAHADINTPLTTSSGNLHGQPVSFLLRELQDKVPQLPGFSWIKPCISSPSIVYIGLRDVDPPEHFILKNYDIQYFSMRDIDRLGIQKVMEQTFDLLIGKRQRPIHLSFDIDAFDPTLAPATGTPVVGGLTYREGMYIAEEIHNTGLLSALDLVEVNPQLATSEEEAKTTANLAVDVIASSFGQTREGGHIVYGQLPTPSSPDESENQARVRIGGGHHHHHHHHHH
# Description: as §1, §2, §3, §4, §5, §6
# The affinities of some of these antibodies to cynomolgus ARG2 were determined using the same assay, and the derived kinetic parameters are shown in Table 21.
molecule,measurement,setting,value
"C0021128: anti-ARG2 antibody, VH SEQ ID NO: 162, VL SEQ ID NO: 167 (antibody, listed as Homo sapiens, V domains shown, C0021128) VH: EVQLLESGGGLVQPGGSLRLSCAASGFTFQYEVAAWVRQAPGKGLEWVSAISGPIPKGYYADSVKGRFTISRDNSKNTLYLQMNSLRAEDTAVYYCARLRADLGLYMDLWGRGTLVTVSS VL: QSVLTQPPSVSAAPGQKVTISCSGSSSNIGNHYVSWYQQLPGTAPKLLIYDNAIESSGIPDRFSGSKSGTSATLGITGLQTGDGADYYCGTWDSNLSALVFGGGTKLTVL",ka,human ARG2,266000 M⁻¹ s⁻¹
same,kd,human ARG2,0.000674 s⁻¹
same,"Results, binding to human ARG1 (BLI)",human ARG1,No binding observed
same,ka,cynomolgus ARG2,437000 M⁻¹ s⁻¹
same,kd,cynomolgus ARG2,0.000771 s⁻¹
